Experimental data: patent publication US20230365699A1 (published 2023)

T1: human BCMA (B-cell maturation antigen) expressed on cells (human, UniProt Q02223 1-184)
T1 construct: whole, on cells; also called hBCMA; hBCMA/HEK293 cell line
T1 sequence (looked up): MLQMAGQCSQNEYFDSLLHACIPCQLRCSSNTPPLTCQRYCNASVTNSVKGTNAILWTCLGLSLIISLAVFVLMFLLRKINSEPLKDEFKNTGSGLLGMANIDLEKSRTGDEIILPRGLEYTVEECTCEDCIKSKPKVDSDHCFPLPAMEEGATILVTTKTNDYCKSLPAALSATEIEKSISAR


Experiments:
[1] = target: human BCMA (B-cell maturation antigen) expressed on cells (human) (UniProt Q02223); assay: flow cytometry, hBCMA-expressing HEK293 cells against parental HEK293 cells
[2] = target: T1, human BCMA (B-cell maturation antigen) …; assay: flow cytometry on hBCMA-expressing HEK293 cells
[3] = target: T1, human BCMA (B-cell maturation antigen) …; assay: flow cytometry, hBCMA-overexpressing HEK293 compared with OPM2 and RPMI-8226 cells

Row | Binder | fold selective binding (hBCMA-expressing HEK293 over parental HEK293) [1] | other results
1 | BCMA-21 scFv (scFv) scFv: EVQLVESGGGLVKPGGSLKLSCAASGFTFSDYYMSWIRQAPGKGLEWVSYISSSGSTIYYADSVKGRFTISRDNAKNSLYLQMNSLRAEDTAVYYCAKVDGGYTEDYWGQGTLVTVSSGGGGSGGGGSGGGGSQSVLTQPPSASGTPGQRVTISCSGSGSNIGSNDVSWYQQIPGTAPKLLIYWNDQRPSGVPDRFSGSKSGISASLAISGLRSEDEADYYCAAWDDSLNGYVFGTGTKVTVL | 3.4 fold | 
2 | BCMA-18 scFv (scFv) scFv: EVQLLESGGGLVQPGGSLRLSCAASGFTFSSYWMSWHRQAPGKGPEWVAHINQDGSEKYYVDSVKGRFTISRDNAESSLYLQMNSLRAEDTAVYYCARWLAVTNWGQGTLVTVSSGGGGSGGGGSGGGGSQSVLTQPPSASGTPGQRVTISCSGSGSNIGSNDVSWYQQIPGTAPKLLIYWNDQRPSGVPDRFSGSKSGTSASLAISGLRSEDEADYYCAAWDDSLNGWVFGGGTKLTVL | 2.2 fold | 
3 | BCMA-13 scFv (scFv) scFv: QMQLVQYGGGVVQPGRSLRLSCAASGFTFSSYAMHWVRQAPGKGLEWVAVISYDGSNKYYADSVKGRFTISRDNSKNTLYLQMNSLKAEDTAVYYCATLPGRDGYPGAFDYRGQGTLVTVSSGGGGSGGGGSGGGGSQAVLTQPPSASGTPGQRVTISCSGSGSNIGSNDVSWYQQIPGTAPKLLIYWNDQRPSGVPDRFSASKSGTSASLAISGLRSEDEADYYCAAWDDSLGGSWVFGGGTKVTVL |  | binding result [2]: no binding
4 | BCMA-30 scFv (scFv, V domains shown) VH: QVQLVQSGGGLVQPGRSLRLSCAASGFTFGDYAMHWVRQAPGKGLEWVSGISWNSGSIGYADSVKGRFTISRDNAKNSLYLQMNSLRAEDTAVYYCARDLDPDDAFDIWGQGTMVTVSS |  | binding result [3]: binds

Second part, led by results:

Row | fold selective binding (hBCMA-expressing HEK293 over parental HEK293) [1] | Binder | other results
5 | 10.8 fold | BCMA-20 scFv (scFv) scFv: EVQLLESGGGLVQPGRSLRLSCAASGFTFDDYAMHWVRQAPGKGLEWVSGISWNSGSIGYADSVKGRFTISRDNAKNSLYLQMNSLRAEDTALYYCAKGGLGITPYYFDYWGQGTLVTVSSGGGGSGGGGSGGGGSQPVLTQPPSASGTPGQRVTISCSGGKTVNWFRQVPGTAPQLLIYSNDQRPSGVPDRFSGSKSGSSASLDISGLQSEDEAYYYCGSWDDSLNAWVFGGETKLTVL | 
6 | 7.5 fold | BCMA-22 scFv (scFv) scFv: EVQLVESGGGLVKPGGSLRLSCAASGFTFSDYYMSWIRQAPGKGLEWVSYISSSGSTIYYADSVKGRFTISRDNAKNSLYLQMNSLRAEDTAVYYCAKVDGDYTEDYWGQGTLVTVSSGGGGSGGGGSGGGGSQSALTQPASVSGSPGQSITISCTGSSSDVGKYNLVSWYQQPPGKAPKLIIYDVNKRPSGVSNRFSGSKSGNTATLTISGLQGDDEADYYCCSYGGSRSYVFGTGTKVTVL | 
